In publication PMC10397247:

Experiments:
Experiment in all cases: two-hybrid library CCNG1;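 also: natural log of median RNA to DNA barcode read ratio; higher means stronger binding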
4H2223-bN = molecular target: T1, 4H2223-bN
T1 chain: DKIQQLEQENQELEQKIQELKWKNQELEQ

4H348-bN = molecular target: T2, 4H348-bN
T2 chain: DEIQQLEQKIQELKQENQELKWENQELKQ

4H3277-bN = molecular target: T3, 4H3277-bN
T3 chain: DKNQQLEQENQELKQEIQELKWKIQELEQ

4H2717-bN = molecular target: T4, 4H2717-bN
T4 chain: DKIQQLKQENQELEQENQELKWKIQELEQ

4H2915-bN = molecular target: T5, 4H2915-bN
T5 chain: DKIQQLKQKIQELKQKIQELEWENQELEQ

4H3057-bN = molecular target: T6, 4H3057-bN
T6 chain: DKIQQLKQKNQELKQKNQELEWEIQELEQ

4H462-bN = molecular target: T7, 4H462-bN
T7 chain: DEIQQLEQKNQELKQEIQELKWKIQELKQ

4H182-bN = molecular target: T8, 4H182-bN
T8 chain: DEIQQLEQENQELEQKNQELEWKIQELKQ

4H2503-bN = molecular target: T9, 4H2503-bN
T9 chain: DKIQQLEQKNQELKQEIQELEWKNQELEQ

4H2473-bN = molecular target: T10, 4H2473-bN
T10 chain: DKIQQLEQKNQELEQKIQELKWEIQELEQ

4H2134-bN = molecular target: T11, 4H2134-bN
T11 chain: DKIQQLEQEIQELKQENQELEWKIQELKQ

4H2839-bN = molecular target: T12, 4H2839-bN
T12 chain: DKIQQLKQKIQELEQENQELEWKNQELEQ

4H2143-bN = molecular target: T13, 4H2143-bN
T13 chain: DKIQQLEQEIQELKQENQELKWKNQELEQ

4H2438-bN = molecular target: T14, 4H2438-bN
T14 chain: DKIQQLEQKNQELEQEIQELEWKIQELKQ

4H40-bN = molecular target: T15, 4H40-bN
T15 chain: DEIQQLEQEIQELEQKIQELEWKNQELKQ

4H492-bN = molecular target: T16, 4H492-bN
T16 chain: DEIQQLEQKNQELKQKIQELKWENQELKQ

4H908-bN = molecular target: T17, 4H908-bN
T17 chain: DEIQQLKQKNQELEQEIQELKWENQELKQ

4H741-bN = molecular target: T18, 4H741-bN
T18 chain: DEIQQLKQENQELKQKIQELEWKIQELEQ

4H2588-bN = molecular target: T19, 4H2588-bN
T19 chain: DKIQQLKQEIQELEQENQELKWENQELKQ

4H2692-bN = molecular target: T20, 4H2692-bN
T20 chain: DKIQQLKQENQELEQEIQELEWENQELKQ

4H575-bA = molecular target: T21, 4H575-bA
T21 chain: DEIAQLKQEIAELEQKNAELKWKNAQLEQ

4H477-bN = molecular target: T22, 4H477-bN
T22 chain: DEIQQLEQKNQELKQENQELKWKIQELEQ

4H319-bN = molecular target: T23, 4H319-bN
T23 chain: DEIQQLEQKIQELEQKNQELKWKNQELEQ

4H2937-bA = molecular target: T24, 4H2937-bA
T24 chain: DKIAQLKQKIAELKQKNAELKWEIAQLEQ

4H491-bA = molecular target: T25, 4H491-bA
T25 chain: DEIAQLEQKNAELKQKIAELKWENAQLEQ

4H2696-bA = molecular target: T26, 4H2696-bA
T26 chain: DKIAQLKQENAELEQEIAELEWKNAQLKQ

4H2883-bA = molecular target: T27, 4H2883-bA
T27 chain: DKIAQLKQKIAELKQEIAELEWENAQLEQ

4H48-bA = molecular target: T28, 4H48-bA
T28 chain: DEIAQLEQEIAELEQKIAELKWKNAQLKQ

4H2944-bA = molecular target: T29, 4H2944-bA
T29 chain: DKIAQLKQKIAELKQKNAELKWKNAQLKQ

4H342-bA = molecular target: T30, 4H342-bA
T30 chain: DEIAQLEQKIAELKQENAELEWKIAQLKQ

For DEIQQLEQENQELEQKNQELEWKIQELKQ [4H182-bN], the interaction score (4H2223-bN) was -0.0217, the interaction score (4H348-bN) was -0.689 and the interaction score (4H3277-bN) was -0.0991. It also gave an interaction score (4H2717-bN) of 0.137, an interaction score (4H2915-bN) of 0.186 and an interaction score (4H3057-bN) of 2.24. The interaction score (4H462-bN) was -0.134, the interaction score (4H182-bN) was -0.13 and the interaction score (4H2503-bN) was -0.284. It also gave an interaction score (4H2473-bN) of -0.481, an interaction score (4H2134-bN) of -0.568 and an interaction score (4H2839-bN) of 0.367. It also gave an interaction score (4H2143-bN) of -0.437, an interaction score (4H2438-bN) of -0.143 and an interaction score (4H40-bN) of 0.0984. For the same binder, the interaction score (4H492-bN) was 0.471, the interaction score (4H908-bN) was -2.24 and the interaction score (4H741-bN) was -0.228. It also gave an interaction score (4H2588-bN) of -0.916, an interaction score (4H2692-bN) of 0.536 and an interaction score (4H575-bA) of -2.96. For the same binder, the interaction score (4H477-bN) was -1.61 and the interaction score (4H319-bN) was -0.552.

For DKIAQLKQENAELEQEIAELEWKNAQLKQ [4H2696-bA], the interaction score (4H2937-bA) was 0.659, the interaction score (4H491-bA) was 1.93 and the interaction score (4H2696-bA) was -0.668. It also gave an interaction score (4H2883-bA) of 0.674, an interaction score (4H48-bA) of -0.267 and an interaction score (4H2944-bA) of 0.173. It also gave an interaction score (4H342-bA) of -0.319.
